# Source: the supplement of paper PMC9732359
# ± gives the uncertainty stated by the source.
# Test: protein stability index of a GFP-peptide fusion (yeast GPS) (PSI 1-4); higher = more stable; sorted into four equal gates, so the index is relative within each strain
# Method in brief: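 Mid-log yeast cultures in leucine-free medium, carrying a pooled plasmid library, were sorted into four equal gates by their GFP/Cherry fluorescence ratio. Each plasmid expressed Cherry along with GFP fused upstream of a tiled 17-residue yeast protein peptide. Plasmids recovered from each gate were PCR-amplified and Illumina-sequenced, with reads assigned to strains by barcodes. The protein stability index was obtained by summing each gate's read frequency weighted by its gate number.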
sequence,measurement,setting,value
PPLLVYKWTQGINNLSE [PRP8],protein stability index,doa10∆,3.09 ± 0.12
same,protein stability index,pdr5∆,3.11 ± 0.073
same,protein stability index,san1∆,3.29 ± 0.076
same,protein stability index,ubr1∆,3.25 ± 0.098
IYDDWLDRISSYTAFSR [PRP8],protein stability index,doa10∆,2.16 ± 0.05
same,protein stability index,pdr5∆,1.75 ± 0.044
same,protein stability index,san1∆,1.92 ± 0.073
same,protein stability index,ubr1∆,2.24 ± 0.039
KKSRLGNSFHLMRELLK [PRP8],protein stability index,doa10∆,2.58 ± 0.04
same,protein stability index,pdr5∆,2.71 ± 0.046
same,protein stability index,san1∆,2.39 ± 0.049
same,protein stability index,ubr1∆,2.55 ± 0.043
NVGTNTYRLGEWSKISV [POP1],protein stability index,doa10∆,1.97 ± 0.25
same,protein stability index,pdr5∆,2.34 ± 0.12
same,protein stability index,san1∆,2.69 ± 0.097
same,protein stability index,ubr1∆,3.17 ± 0.12
KIDIIELQKSLSLEEVE [FAS1],protein stability index,doa10∆,2.92 ± 0.14
same,protein stability index,pdr5∆,2.62 ± 0.15
same,protein stability index,san1∆,2.52 ± 0.077
same,protein stability index,ubr1∆,2.79 ± 0.088
KVNPNIMNMIENVEKKE [SMC2],protein stability index,doa10∆,2.46 ± 0.13
same,protein stability index,pdr5∆,2.71 ± 0.12
same,protein stability index,san1∆,2.36 ± 0.13
same,protein stability index,ubr1∆,2.5 ± 0.064
YLIVAGVDPTGSHLFSI [PUP1],protein stability index,doa10∆,1.84 ± 0.081
same,protein stability index,pdr5∆,2.24 ± 0.085
same,protein stability index,san1∆,1.94 ± 0.14
same,protein stability index,ubr1∆,2.09 ± 0.068
NKSRSSGHFSTDSRTGQ [CDC53],protein stability index,doa10∆,3.03 ± 0.054
same,protein stability index,pdr5∆,3.05 ± 0.052
same,protein stability index,san1∆,3.12 ± 0.041
same,protein stability index,ubr1∆,3.14 ± 0.039
KGIAKEHAKWGPAAAIE [RPB3],protein stability index,doa10∆,3.11 ± 0.12
same,protein stability index,pdr5∆,3.32 ± 0.1
same,protein stability index,san1∆,3.06 ± 0.13
same,protein stability index,ubr1∆,2.9 ± 0.055
SEPIKEIIDNWEKYEQS [FAS1],protein stability index,doa10∆,2.88 ± 0.097
same,protein stability index,pdr5∆,3.22 ± 0.07
same,protein stability index,san1∆,3.23 ± 0.048
same,protein stability index,ubr1∆,2.96 ± 0.059
EGRSFTKAIEDAKKEMK [YLR335W/NUP2],protein stability index,doa10∆,2.87 ± 0.066
same,protein stability index,pdr5∆,2.7 ± 0.062
same,protein stability index,san1∆,2.83 ± 0.06
same,protein stability index,ubr1∆,2.59 ± 0.081
YSLHQIRKDPNNLSNQL [CSE2],protein stability index,doa10∆,2.54 ± 0.076
same,protein stability index,pdr5∆,2.66 ± 0.071
same,protein stability index,san1∆,2.65 ± 0.054
same,protein stability index,ubr1∆,2.77 ± 0.04
PRTLIGHRATVTDIAII [RPN14],protein stability index,doa10∆,3.24 ± 0.18
same,protein stability index,pdr5∆,3.54 ± 0.2
same,protein stability index,san1∆,3.29 ± 0.1
same,protein stability index,ubr1∆,3.18 ± 0.094
ENTVGLISGAGANPRVL [RPN10],protein stability index,doa10∆,1.72 ± 0.052
same,protein stability index,pdr5∆,1.46 ± 0.057
same,protein stability index,san1∆,1.86 ± 0.085
same,protein stability index,ubr1∆,1.4 ± 0.044
ELVVFLPALCKKMGVPY [RPL8A],protein stability index,doa10∆,2.92 ± 0.098
same,protein stability index,pdr5∆,2.83 ± 0.11
same,protein stability index,san1∆,2.78 ± 0.14
same,protein stability index,ubr1∆,3 ± 0.061
TAFQTQRTAQDRVQQDS [YML031W/NDC1],protein stability index,doa10∆,2.94 ± 0.086
same,protein stability index,pdr5∆,2.62 ± 0.075
same,protein stability index,san1∆,3.26 ± 0.076
same,protein stability index,ubr1∆,2.35 ± 0.079
LHYTPIEDLWQFLYEKH [RPC82],protein stability index,doa10∆,2.24 ± 0.13
same,protein stability index,pdr5∆,2.28 ± 0.13
same,protein stability index,san1∆,2.14 ± 0.12
same,protein stability index,ubr1∆,2.4 ± 0.16
DERTKEFEKKLQETLNK [YIL149C/MLP2],protein stability index,san1∆,2.88 ± 0.12
QWSIEIVLLDDEGKEIP [TAF14],protein stability index,doa10∆,1.99 ± 0.06
same,protein stability index,pdr5∆,2.1 ± 0.06
same,protein stability index,san1∆,2.71 ± 0.066
same,protein stability index,ubr1∆,2.75 ± 0.068
SSFEKFNDSQAIVCYIL [SRP72],protein stability index,doa10∆,2.43 ± 0.046
same,protein stability index,pdr5∆,2.53 ± 0.047
same,protein stability index,san1∆,2.42 ± 0.042
same,protein stability index,ubr1∆,2.63 ± 0.031
TVTLNKNREVVQVSKAG [RRP45],protein stability index,doa10∆,2.8 ± 0.092
same,protein stability index,pdr5∆,2.98 ± 0.075
same,protein stability index,san1∆,2.76 ± 0.065
same,protein stability index,ubr1∆,2.82 ± 0.065
SIWGNGYSGYGNGITNT [SNF5],protein stability index,doa10∆,3.26 ± 0.1
same,protein stability index,pdr5∆,3.4 ± 0.12
same,protein stability index,san1∆,3.35 ± 0.084
same,protein stability index,ubr1∆,3.34 ± 0.051
AYSSRFQTPFRRRREGK [RPL5],protein stability index,doa10∆,2.9 ± 0.078
same,protein stability index,pdr5∆,2.75 ± 0.068
same,protein stability index,san1∆,2.58 ± 0.082
same,protein stability index,ubr1∆,3.04 ± 0.064
GILRRKSESDELQMRSF [RRP4],protein stability index,doa10∆,3.06 ± 0.11
same,protein stability index,pdr5∆,3.04 ± 0.17
same,protein stability index,san1∆,3.18 ± 0.11
same,protein stability index,ubr1∆,3.16 ± 0.084
TLKLRARQRGKLKKSEE [SRP68],protein stability index,doa10∆,3.44 ± 0.15
same,protein stability index,pdr5∆,3.27 ± 0.11
same,protein stability index,san1∆,3.36 ± 0.067
same,protein stability index,ubr1∆,3.67 ± 0.21
SYAGKQVVGPFHTSFSA [SMC4],protein stability index,doa10∆,2.7 ± 0.078
same,protein stability index,pdr5∆,3.33 ± 0.11
same,protein stability index,san1∆,3.08 ± 0.056
same,protein stability index,ubr1∆,3.13 ± 0.049
